Test results reported in patent US20090155271A1 (ZymoGenetics, published 2009).
“And” between values parts separate entries of the source, which are not always exact repeats. Identical values can stand only once.

T1: human IL-17RC, x1 splice variant, on transfected cells (human, UniProt Q8NAC3 21-791)
T1 sequence: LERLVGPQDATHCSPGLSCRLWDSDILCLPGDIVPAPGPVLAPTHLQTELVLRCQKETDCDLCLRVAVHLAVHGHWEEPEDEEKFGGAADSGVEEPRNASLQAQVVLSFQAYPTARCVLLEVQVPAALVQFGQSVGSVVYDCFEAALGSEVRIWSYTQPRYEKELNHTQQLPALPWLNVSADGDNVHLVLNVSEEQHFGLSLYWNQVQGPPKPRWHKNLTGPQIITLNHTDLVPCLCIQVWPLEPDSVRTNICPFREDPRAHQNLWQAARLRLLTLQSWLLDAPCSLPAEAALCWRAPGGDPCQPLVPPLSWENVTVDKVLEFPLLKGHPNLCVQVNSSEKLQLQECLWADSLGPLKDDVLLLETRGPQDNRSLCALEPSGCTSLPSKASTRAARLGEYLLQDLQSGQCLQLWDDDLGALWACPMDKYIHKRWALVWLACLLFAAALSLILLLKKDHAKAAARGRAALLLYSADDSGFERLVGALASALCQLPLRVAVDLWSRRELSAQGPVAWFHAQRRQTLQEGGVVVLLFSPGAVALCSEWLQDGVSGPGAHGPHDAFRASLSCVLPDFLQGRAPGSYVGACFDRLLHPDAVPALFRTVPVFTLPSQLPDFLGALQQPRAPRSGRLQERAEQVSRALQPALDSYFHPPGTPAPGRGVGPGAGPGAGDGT

T2: human IL-17RA on transfected cells (human, UniProt Q96F46 33-320)
T2 sequence: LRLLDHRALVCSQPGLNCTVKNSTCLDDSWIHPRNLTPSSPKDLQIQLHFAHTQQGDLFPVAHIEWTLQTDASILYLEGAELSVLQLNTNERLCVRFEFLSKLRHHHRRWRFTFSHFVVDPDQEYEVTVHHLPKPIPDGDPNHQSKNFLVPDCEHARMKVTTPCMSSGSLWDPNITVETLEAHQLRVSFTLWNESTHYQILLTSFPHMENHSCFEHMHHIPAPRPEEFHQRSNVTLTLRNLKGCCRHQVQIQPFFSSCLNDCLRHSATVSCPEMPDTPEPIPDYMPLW

T3: human IL-17A (human, UniProt Q16552 24-155)
T3 sequence: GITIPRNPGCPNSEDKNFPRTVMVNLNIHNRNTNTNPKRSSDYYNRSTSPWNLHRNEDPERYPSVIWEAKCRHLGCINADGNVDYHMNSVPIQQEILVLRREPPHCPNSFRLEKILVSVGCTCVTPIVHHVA

B1: human IL-17F (ligand)
chain: RKIPKVGHTFFQKPESCPPVPGGSMKLDIGIINENQRVSMSRNIESRSTSPWNYTVTWDPNRYPSEVVQAQCRNLGCINAQGKEDISMNSVPIQQETLVVRRKHQGCSVSFQLEKVLVTVGCTCVTPVIHHVQ
notes: also called hIL-17F; huIL-17F
B2: mouse IL-17A (ligand)
chain: AAIIPQSSACPNTEAKDFLQNVKVNLKVFNSLGAKVSSRRPSDYLNRSTSPWTLHRNEDPDRYPSVIWEAQCRHQRCVNAEGKLDHHMNSVLIQQEILVLKREPESCPFTFRVEKMLVGVGCTCVASIVRQAA
B3: Variant 1454 (exons 1-6 of human IL-17RA and 8-16 of human IL-17RCx1, fused to Fc5) (Fc fusion)
chain: SLRLLDHRALVCSQPGLNCTVKNSTCLDDSWIHPRNLTPSSPKDLQIQLHFAHTQQGDLFPVAHIEWTLQTDASILYLEGAELSVLQLNTNERLCVRFEFLSKLRHHHRRWRFTFSHFVVDPDQEYEVTVHHLPKPIPDGDPNHQSKNFLVPDCEHARMKVTTPCMSSALPWLNVSADGDNVHLVLNVSEEQHFGLSLYWNQVQGPPKPRWHKNLTGPQIITLNHTDLVPCLCIQVWPLEPDSVRTNICPFREDPRAHQNLWQAARLRLLTLQSWLLDAPCSLPAEAALCWRAPGGDPCQPLVPPLSWENVTVDKVLEFPLLKGHPNLCVQVNSSEKLQLQECLWADSLGPLKDDVLLLETRGPQDNRSLCALEPSGCTSLPSKASTRAARLGEYLLQDLQSGQCLQLWDDDLGALWACPMDKYIHKEPKSSDKTHTCPPCPAPEAEGAPSVFLFPPKPKDTLMISRTPEVTCVVVDVSHEDPEVKFNWYVDGVEVHNAKTKPREEQYNSTYRVVSVLTVLHQDWLNGKEYKCKVSNKALPSSIEKTISKAKGQPREPQVYTLPPSRDELTKNQVSLTCLVKGFYPSDIAVEWESNGQPENNYKTTPPVLDSDGSFFLYSKLTVDKSRWQQGNVFSCSVMHEALHNHYTQKSLSLSPGK
notes: also called IL17RA/RC 1454; soluble IL-17RC/IL-17RA polypeptide

Assays:
[1] = molecular target: T1, human IL-17RC, x1 splice variant, on …; experiment: cell-based or functional assay
[2] = molecular target: T2, human IL-17RA on transfected cells; experiment: cell-based or functional assay
[3] = molecular target: T1, human IL-17RC, x1 splice variant, on …; experiment: 100x molar cold competitor, 125I IL-17A on BHK hIL-17RC cells
Procedure: (§1) Cold competitors were added in 100 fold molar excess. […] Wells were incubated on ice for 1-hour followed by two washes with PBS (Invitrogen 20012-027) and one wash with a high salt solution (1.5M NaCL, 50 mM HEPES pH 7.4). Wells were extracted with 500 ul of 0.8M NaOH for 30 min. at room temperature and counts per minute were measured in a gamma counter (Packard Cobra II A5005).

[4] = molecular target: T1, human IL-17RC, x1 splice variant, on …; experiment: 100x molar cold competitor, 125I IL-17F on BHK hIL-17RC cells
Procedure: as §1

[5] = molecular target: T3, human IL-17A; experiment: cell-based or functional assay
[6] = molecular target: B1; experiment: cell-based or functional assay
[7] = molecular target: T3, human IL-17A; experiment: cell-based or functional assay; remark: listed apart in the source
[8] = molecular target: B1; experiment: cell-based or functional assay; remark: listed apart in the source
[9] = molecular target: T3, human IL-17A; experiment: Biacore, rounded summary of Table 10
Text: (§2) The protocol was optimized to capture receptor at a theoretical binding max. before injecting a concentration series of each ligand to observe association and dissociation. […] The surface was regenerated with 2×30 sec. injections of pH 1.75 glycine between cycles.

[10] = molecular target: B1; experiment: Biacore, rounded summary of Table 10
Text: as §2

[11] = molecular target: T3, human IL-17A; experiment: Biacore, receptor captured by anti-human IgG-Fc on CM5, ligand series
Text: as §2

[12] = molecular target: B1; experiment: as above
Text: as §2

B1
EC50, ap1/nfkb luciferase in nih3t3/kz142.8/hcytor14X1 cells [1]: 0.00061 µg/mL
EC50, ap1/nfkb luciferase in nih3t3/kz142.8/IL-17R cells [2]: 0.0124 µg/mL
fold reduction of 125I IL-17A binding [3]: ~7 fold
fold reduction of 125I IL-17F binding [4]: ~5 fold

B2
EC50, ap1/nfkb luciferase in nih3t3/kz142.8/hcytor14x1 cells [1]: ~0.004 µg/mL

B3
IC50, luciferase activation of hIL-17RA/NIH3T3/KZ142.8 cells by 0.5 ng/ml IL-17A [5]: 0.007 µg/mL
IC50, luciferase activation of hIL-17RA/NIH3T3/KZ142.8 cells by 20 ng/ml IL-17F [6]: 0.48 µg/mL
IC50, luciferase activation of hIL-17RCX4/NIH3T3/KZ142.8 cells by 1 ng/ml IL-17F [6]: 0.8 µg/mL
IC50, huIL-17A(10 ng/ml) induction of G-CSF in SAEC [7]: 0.14 µg/mL
IC50, huIL-17A(10 ng/ml) induction of IL-8 in SAEC [7]: 0.03 µg/mL
IC50, huIL-17F(50 ng/ml) induction of G-CSF in SAEC [8]: 1.2 µg/mL
IC50, huIL-17F(50 ng/ml) induction of IL-8 in SAEC [8]: 0.57 µg/mL
Kd [9]: ~0.04 nM
Kd [10]: ~0.14 nM
Kd [11]: 0.0439 nM and 0.0382 nM
koff [11]: 6.22e-05 s⁻¹ and 9.95e-05 s⁻¹
kon [11]: 1.42e+06 M⁻¹ s⁻¹ and 2.61e+06 M⁻¹ s⁻¹
Kd [12]: 0.143 nM and 0.126 nM
koff [12]: 0.000261 s⁻¹ and 0.000315 s⁻¹
kon [12]: 1.82e+06 M⁻¹ s⁻¹ and 2.49e+06 M⁻¹ s⁻¹
